Results from PMC3998876.

Molecular target: biotinylated mouse Izumo1Cd4d3+4 (entire ectodomain, bait form) (mouse) (UniProt Q9D9J7)
Experiment: SPR

Sequence of UniProt Q9D9J7 (Q9D9J7 22-319): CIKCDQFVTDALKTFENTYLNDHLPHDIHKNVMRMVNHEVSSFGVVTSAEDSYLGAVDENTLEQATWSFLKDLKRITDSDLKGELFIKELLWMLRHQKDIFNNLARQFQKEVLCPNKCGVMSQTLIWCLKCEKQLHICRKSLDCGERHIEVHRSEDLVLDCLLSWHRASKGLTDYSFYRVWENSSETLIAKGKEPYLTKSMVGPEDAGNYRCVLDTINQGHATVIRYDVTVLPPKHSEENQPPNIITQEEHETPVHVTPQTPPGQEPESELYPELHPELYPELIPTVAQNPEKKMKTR

- Kd: 12 µM
Substance: mouse JunoCd4d3+4-6His (purified soluble Juno ectodomain) (from UniProt Q9EQF4 20-222) (domain or fragment)
